From article doi:10.1101/2021.02.04.429857 (bioRxiv, 2021)

Target: the molecule itself
Assay: cryo-EM structure

B1: Streptomyces coelicolor bacterioferritin (natural protein, UniProt Q9S2N0 1-167, looked up)
chain: MQGDPEVIEFLNEQLTAELTAINQYFLHAKLQDHKGWTKLAKYTRAESFDEMRHAEVLTDRILLLDGLPNYQRLFHVRVGQSVTEMFQADREVELEAIDRLRRGIEVMRAKHDITSANVFEAILADEEHHIDYLETQLDLIEKLGESLYLSTVIEQTQPDPSGPGSL
B1 was tested, and the “stoichiometry N” value was 24.
